Our source for the Kd values is article PMC8420576 (The EMBO Journal, 2021).

The target in this experiment is T1, SARS-CoV-2 RBD, B.1.427/B.1.429/Epsilon/Californian variant (L452R) (SARS-CoV-2, Epsilon/Californian …, L452R).
T1 construct: also called Epsilon/Californian RBD mutant; Californian L452R mutation
The experiment in a line: BLI. Conditions: both partners purified.

B1: VHH antibody Re5D06, labeled with two PEG11-biotins (VHH)
VHH: QVQLVESGGGLVQPGGSLRLSCAASGITLDYYAIGWFRQAPGKEREGVSRIRSSDGSTNYADSVKGRFTMSRDNAKNTVYLQMNSLKPEDTAVYYCAYGPLTKYGSSWYWPYEYDYWGQGTQVTVSS
notes: also called Re5D06 (immobilized on BLI sensors)
In general, Kd refers to a measure of binding affinity in units of concentration. For the molecule B1, the dissociation constant Kd is approximately 0.4 nM.
